Assays:
[1] = cited from earlier work
[2] = tested on: AR42J tumor bearing athymic nude mice; assay: Biodistribution in AR42J tumor-bearing mice; type: in vivo
[3] = Biodistribution in AR42J tumor-bearing mice; type: in vivo; conditions: mouse, in vivo
[4] = tested on: AR42J rat pancreatic cancer cells; assay: Internalization studies of 68Ga-labeled conjugates in AR42J cells; type: cell-based; conditions: 37 °C, 10-120 min, ~0.7 nM; reference 68Ga-DOTATOC; Fig. 2
[5] = cited from earlier work; remark: listed apart in the source

In the case of `O=C([O-])CN1CCN(CC(=O)[O-])CCN(CC(=O)O)CCN(CC(=O)[O-])CC1.[Ga+3]` [DOTA-Ga(III)], the “log K (thermodynamic stability of the Ga(III) complex)” value [1] is listed as 21.3.
In the case of `O=C([O-])CN1CCN(CC(=O)[O-])CCN(CC(=O)[O-])CC1.[Ga+3]` [NOTA-Ga(III)], the “log K (thermodynamic stability of the Ga(III) complex)” value [1] is given as 31.0.
In the case of `C[C@@H](O)[C@@H]1NC(=O)[C@H](CCCCN)NC(=O)[C@@H](Cc2c[nH]c3ccccc23)NC(=O)[C@H](Cc2ccc(O)cc2)NC(=O)[C@@H](NC(=O)[C@@H](Cc2ccccc2)NC(=O)CCC(C(=O)O)N2CCN(CC(=O)O)CCN(CC(=O)O)CC2)CSSC[C@@H](C(=O)N[C@H](CO)[C@@H](C)O)NC1=O` (stereo partly drawn) [^68Ga-1, metal not drawn], the tumor retention rate ([2]; mouse, in vivo) is reported as 55%, the tumor/kidney ratio ([2]; mouse, in vivo) is reported as “significantly higher” and the tumor/liver ratio ([2]; mouse, in vivo) is reported as “significantly higher”. The tissue uptake at 0.5 h ([3]; iv, kidney uptake) was 22.8 ± 2.22 %ID/g, the tissue uptake at 2 h ([3]; iv, kidney uptake) was 9.79 ± 1.9 %ID/g and the tissue uptake at 0.5 h ([3]; iv, liver uptake) was 0.81 ± 0.09 %ID/g. It also gave a tissue uptake at 1 h ([3]; tumor uptake) of 22.3 ± 3.22 %ID/g and a tissue uptake at 2 h ([3]; tumor uptake) of 12.8 ± 4.65 %ID/g.
With `C[C@@H](O)[C@@H]1NC(=O)[C@H](CCCCN)NC(=O)[C@@H](Cc2c[nH]c3ccccc23)NC(=O)[C@H](Cc2ccc(O)cc2)NC(=O)[C@@H](NC(=O)[C@@H](Cc2ccccc2)NC(=O)CCC(C(=O)O)N2CCN(CC(=O)O)CCN(C(CCC(=O)O)C(=O)O)CC2)CSSC[C@@H](C(=O)N[C@H](CO)[C@@H](C)O)NC1=O` (stereo partly drawn) [^68Ga-2, metal not drawn] the “Internalization in AR42J cells (time course)” value [4] was “significantly decreased”, the tumor retention rate ([2]; mouse, in vivo) was 24% and the tissue uptake at 0.5 h ([3]; iv, kidney uptake) was 18.2 ± 1.84 %ID/g. It also gave a tissue uptake at 2 h ([3]; iv, kidney uptake) of 8.22 ± 2.29 %ID/g, a tissue uptake at 0.5 h ([3]; iv, liver uptake) of 1.38 ± 0.11 %ID/g and a tissue uptake at 1 h ([3]; tumor uptake) of 7.87 ± 0.41 %ID/g. The tissue uptake at 2 h ([3]; tumor uptake) was 1.78 ± 0.15 %ID/g.
For `C[C@@H](O)[C@@H]1NC(=O)[C@H](CCCCN)NC(=O)[C@@H](Cc2c[nH]c3ccccc23)NC(=O)[C@H](Cc2ccc(O)cc2)NC(=O)[C@@H](NC(=O)[C@@H](Cc2ccccc2)NC(=O)CCC(C(=O)O)N2CCN(C(CCC(=O)O)C(=O)O)CCN(C(CCC(=O)O)C(=O)O)CC2)CSSC[C@@H](C(=O)N[C@H](CO)[C@@H](C)O)NC1=O` (stereo partly drawn) [^68Ga-3, metal not drawn], the “Internalization in AR42J cells (time course)” value [4] was “negligible”, the tumor/stomach ratio ([2]; 1 h p.i., vs 68Ga-DOTATOC, 68Ga-NO2ATOC and 68Ga-2 (P<0.01), Fig. 5) was “significantly higher” and the tumor retention rate ([2]; 2 h p.i.) was 19%. For the same compound, the “retention of the initial kidney uptake” value ([2]; 2 h p.i. relative to 30 min p.i.) was “less than 52%”, the tissue uptake at 1 h ([3]; 5 µCi, tumor uptake, 1 h p.i., AR42J xenograft, n=4) was 2.95 ± 0.62 %ID/g and the tissue uptake at 2 h ([3]; 5 µCi, tumor uptake, 2 h p.i., AR42J xenograft, n=4) was 0.83 ± 0.1 %ID/g. The tissue uptake at 0.5 h ([3]; iv, 5 µCi, kidney uptake, 30 min p.i., n=4) was 13.8 ± 2.22 %ID/g, the tissue uptake at 2 h ([3]; iv, 5 µCi, kidney uptake, 2 h p.i., n=4) was 5.24 ± 1.03 %ID/g and the tissue uptake at 0.5 h ([3]; iv, 5 µCi, liver uptake, 30 min p.i., n=4) was 0.51 ± 0.05 %ID/g.
`C[C@@H](O)[C@@H]1NC(=O)[C@H](CCCCN)NC(=O)[C@@H](Cc2c[nH]c3ccccc23)NC(=O)[C@H](Cc2ccc(O)cc2)NC(=O)[C@@H](NC(=O)[C@@H](Cc2ccccc2)NC(=O)CN2CCN(CC(=O)O)CCN(CC(=O)O)CCN(CC(=O)O)CC2)CSSC[C@@H](C(=O)N[C@H](CO)[C@@H](C)O)NC1=O` [^68Ga-DOTATOC, metal not drawn, reference compound] showed a tissue uptake at 0.5 h ([3]; iv, kidney uptake) of 11.3 ± 2.07 %ID/g, a tissue uptake at 2 h ([3]; iv, kidney uptake) of 7.33 ± 1.28 %ID/g and a tissue uptake at 0.5 h ([3]; iv, liver uptake) of 0.74 ± 0.18 %ID/g. The tissue uptake at 2 h ([3]; iv, liver uptake) was 4.37 ± 0.2 %ID/g and the tissue uptake at 1 h ([3]; tumor uptake) was 13.5 ± 6.28 %ID/g.
In the case of “SST-14: physiological form of somatostatin, natural SSTR ligand”, the biological half-life [5] is listed as 2–4 min.
For “SST-28: physiological form of somatostatin, natural SSTR ligand”, the biological half-life [5] is listed as 2–4 min.

Source: PMC4329983 (Molecular imaging and biology : MIB : the official …, 2013)
